What was measured:
Assay in all cases: cell-based or functional assay
[1] = target: HIV-1 Env of pseudovirus Du422.1 (HIV-1)
[2] = target: HIV-1 Env of pseudovirus Q461.e2 (HIV-1)
[3] = target: HIV-1 Env of pseudovirus P1981_C5_3 (HIV-1)
[4] = target: HIV-1 Env of pseudovirus T251-18 (HIV-1)
[5] = target: HIV-1 Env of pseudovirus Ce2010_F5 (HIV-1)
[6] = target: HIV-1 Env of pseudovirus HIV-001428-2.42 (HIV-1)
[7] = target: HIV-1 Env of pseudovirus Ce0682_E4 (HIV-1)
[8] = target: HIV-1 Env of pseudovirus 231966.c02 (HIV-1)
[9] = target: HIV-1 Env of pseudovirus ZM233M.PB6 (HIV-1)
[10] = target: HIV-1 Env of pseudovirus 6540.v4.c1 (HIV-1)
[11] = target: HIV-1 Env of pseudovirus T278-50 (HIV-1)
[12] = target: HIV-1 Env of pseudovirus Ce0393_C3 (HIV-1)
[13] = target: HIV-1 Env of pseudovirus X1254_c3 (HIV-1)
[14] = target: HIV-1 Env of pseudovirus 6811.v7.c18 (HIV-1)
[15] = target: HIV-1 Env of pseudovirus Ce703010054_2A2 (HIV-1)
[16] = target: HIV-1 Env of pseudovirus MS208.A1 (HIV-1)
[17] = target: HIV-1 Env of pseudovirus ZM249M.PL1 (HIV-1)
[18] = target: HIV-1 Env of pseudovirus Du156.12 (HIV-1)
[19] = target: HIV-1 Env of pseudovirus 1012_11_TC21_3257 (HIV-1)
[20] = target: HIV-1 Env of pseudovirus X1193_c1 (HIV-1)
[21] = target: HIV-1 Env of pseudovirus Ce1176_A3 (HIV-1)
[22] = target: HIV-1 Env of pseudovirus ZM53M.PB12 (HIV-1)
[23] = target: HIV-1 Env of pseudovirus CNE20 (HIV-1)
[24] = target: HIV-1 Env of pseudovirus R2184.c04 (HIV-1)
[25] = target: HIV-1 Env of pseudovirus CNE53 (HIV-1)
[26] = target: HIV-1 Env of pseudovirus BJOX028000.10.3 (HIV-1)
[27] = target: HIV-1 Env of pseudovirus BJOX015000.11.5 (HIV-1)
[28] = target: HIV-1 Env of pseudovirus ZM214M.PL15 (HIV-1)
[29] = target: HIV-1 Env of pseudovirus ZM109F.PB4 (HIV-1)
[30] = target: HIV-1 Env of pseudovirus 928-28 (HIV-1)
[31] = target: HIV-1 Env of pseudovirus CAP210.2.00.E8 (HIV-1)
[32] = target: HIV-1 Env of pseudovirus CNE5 (HIV-1)
[33] = target: HIV-1 Env of pseudovirus CAAN5342.A2 (HIV-1)
[34] = target: HIV-1 Env of pseudovirus Q842.d12 (HIV-1)
[35] = target: HIV-1 Env of pseudovirus 1056_10_TA11_1826 (HIV-1)

## 3BNC117 (antibody)
[1]
  neutralization IC50: > 50 µg/mL
  neutralization IC80: > 50 µg/mL
[2]
  neutralization IC50: 0.03 µg/mL
  neutralization IC80: 0.09 µg/mL
[3]
  IC50, titer in TZM.bl cells: 0.74 µg/mL
  IC80, titer in TZM.bl cells: 3.62 µg/mL
[4]
  IC50, titer in TZM.bl cells: 0.26 µg/mL
  IC80, titer in TZM.bl cells: 0.82 µg/mL
[5]
  neutralization IC50: 0.05 µg/mL
  neutralization IC80: 0.21 µg/mL
[6]
  neutralization IC50: 0.003 µg/mL
  neutralization IC80: 0.02 µg/mL
[7]
  neutralization IC50: 0.03 µg/mL
  neutralization IC80: 0.15 µg/mL
[8]
  IC50, titer in TZM.bl cells: 0.29 µg/mL
  IC80, titer in TZM.bl cells: 2.37 µg/mL
[9]
  neutralization IC50: 0.13 µg/mL
  neutralization IC80: 0.85 µg/mL
[10]
  IC50, titer in TZM.bl cells: > 50 µg/mL
  IC80, titer in TZM.bl cells: > 50 µg/mL
[11]
  IC50, titer in TZM.bl cells: > 15 µg/mL
  IC80, titer in TZM.bl cells: > 15 µg/mL
[12]
  neutralization IC50: 0.2 µg/mL
  neutralization IC80: 0.67 µg/mL
[13]
  IC50, titer in TZM.bl cells: 0.08 µg/mL
  IC80, titer in TZM.bl cells: 0.27 µg/mL
[14]
  IC50, titer in TZM.bl cells: 0.03 µg/mL
  IC80, titer in TZM.bl cells: 0.17 µg/mL
[15]
  neutralization IC50: 0.37 µg/mL
  neutralization IC80: 1.67 µg/mL
[16]
  neutralization IC50: 0.01 µg/mL
  neutralization IC80: 0.09 µg/mL
[17]
  neutralization IC50: 0.03 µg/mL
  neutralization IC80: 0.11 µg/mL
[18]
  neutralization IC50: 0.02 µg/mL
  neutralization IC80: 0.08 µg/mL
[19]
  neutralization IC50: 0.02 µg/mL
  neutralization IC80: 0.07 µg/mL
[20]
  IC50, titer in TZM.bl cells: 0.06 µg/mL
  IC80, titer in TZM.bl cells: 0.25 µg/mL
[21]
  neutralization IC50: 0.22 µg/mL
  neutralization IC80: 0.75 µg/mL
[22]
  neutralization IC50: 0.21 µg/mL
  neutralization IC80: 0.85 µg/mL
[23]
  neutralization IC50: > 50 µg/mL
  neutralization IC80: > 50 µg/mL
[24]
  IC50, titer in TZM.bl cells: 0.03 µg/mL
  IC80, titer in TZM.bl cells: 0.1 µg/mL
[25]
  neutralization IC50: 0.08 µg/mL
  neutralization IC80: 0.99 µg/mL
[26]
  IC50, titer in TZM.bl cells: 0.01 µg/mL
  IC80, titer in TZM.bl cells: 0.05 µg/mL
[27]
  IC50, titer in TZM.bl cells: 0.05 µg/mL
  IC80, titer in TZM.bl cells: 0.32 µg/mL
[28]
  neutralization IC50: 0.06 µg/mL
  neutralization IC80: 0.52 µg/mL
[29]
  neutralization IC50: 0.14 µg/mL
  neutralization IC80: 0.88 µg/mL
[30]
  neutralization IC50: 0.15 µg/mL
  neutralization IC80: 0.55 µg/mL
[31]
  neutralization IC50: 17.2 µg/mL
  neutralization IC80: > 50 µg/mL
[32]
  IC50, titer in TZM.bl cells: 0.28 µg/mL
  IC80, titer in TZM.bl cells: 1.28 µg/mL
[33]
  neutralization IC50: 0.42 µg/mL
  neutralization IC80: 1.51 µg/mL
[34]
  neutralization IC50: < 0.01 µg/mL
  neutralization IC80: 0.01 µg/mL
[35]
  neutralization IC50: 0.3 µg/mL
  neutralization IC80: 1.82 µg/mL

## 8ANC195 (antibody)
[1]
  neutralization IC50: > 50 µg/mL
  neutralization IC80: > 50 µg/mL
[2]
  neutralization IC50: 0.63 µg/mL
  neutralization IC80: 2.51 µg/mL
[3]
  IC50, titer in TZM.bl cells: 0.14 µg/mL
  IC80, titer in TZM.bl cells: 1.15 µg/mL
[5]
  neutralization IC50: > 50 µg/mL
  neutralization IC80: > 50 µg/mL
[6]
  neutralization IC50: > 50 µg/mL
  neutralization IC80: > 50 µg/mL
[7]
  neutralization IC50: 0.2 µg/mL
  neutralization IC80: 1.29 µg/mL
[8]
  IC50, titer in TZM.bl cells: 0.54 µg/mL
  IC80, titer in TZM.bl cells: 2.98 µg/mL
[9]
  neutralization IC50: 7.39 µg/mL
  neutralization IC80: 43.5 µg/mL
[10]
  IC50, titer in TZM.bl cells: > 50 µg/mL
  IC80, titer in TZM.bl cells: > 50 µg/mL
[11]
  IC50, titer in TZM.bl cells: > 50 µg/mL
  IC80, titer in TZM.bl cells: > 50 µg/mL
[12]
  neutralization IC50: 6.77 µg/mL
  neutralization IC80: > 50 µg/mL
[13]
  IC50, titer in TZM.bl cells: 6.95 µg/mL
  IC80, titer in TZM.bl cells: 6.95 µg/mL
[14]
  IC50, titer in TZM.bl cells: 5.34 µg/mL
  IC80, titer in TZM.bl cells: 27.6 µg/mL
[15]
  neutralization IC50: 13.6 µg/mL
  neutralization IC80: > 50 µg/mL
[16]
  neutralization IC50: > 50 µg/mL
  neutralization IC80: > 50 µg/mL
[17]
  neutralization IC50: > 50 µg/mL
  neutralization IC80: > 50 µg/mL
[18]
  neutralization IC50: 0.22 µg/mL
  neutralization IC80: 1.56 µg/mL
[19]
  neutralization IC50: > 50 µg/mL
  neutralization IC80: > 50 µg/mL
[20]
  IC50, titer in TZM.bl cells: 0.27 µg/mL
  IC80, titer in TZM.bl cells: 1.66 µg/mL
[21]
  neutralization IC50: 4.45 µg/mL
  neutralization IC80: 35.2 µg/mL
[22]
  neutralization IC50: > 30 µg/mL
  neutralization IC80: > 30 µg/mL
[23]
  neutralization IC50: 0.5 µg/mL
  neutralization IC80: 3.19 µg/mL
[24]
  IC50, titer in TZM.bl cells: 0.09 µg/mL
  IC80, titer in TZM.bl cells: 13 µg/mL
[25]
  neutralization IC50: > 50 µg/mL
  neutralization IC80: > 50 µg/mL
[26]
  IC50, titer in TZM.bl cells: 0.45 µg/mL
  IC80, titer in TZM.bl cells: 2.83 µg/mL
[27]
  IC50, titer in TZM.bl cells: 0.97 µg/mL
  IC80, titer in TZM.bl cells: 4.3 µg/mL
[28]
  neutralization IC50: 0.91 µg/mL
  neutralization IC80: 12.3 µg/mL
[29]
  neutralization IC50: > 30 µg/mL
  neutralization IC80: > 30 µg/mL
[30]
  neutralization IC50: > 50 µg/mL
  neutralization IC80: > 50 µg/mL
[31]
  neutralization IC50: > 50 µg/mL
  neutralization IC80: > 50 µg/mL
[32]
  IC50, titer in TZM.bl cells: 2.12 µg/mL
  IC80, titer in TZM.bl cells: 9.67 µg/mL
[33]
  neutralization IC50: > 50 µg/mL
  neutralization IC80: > 50 µg/mL
[34]
  neutralization IC50: > 30 µg/mL
  neutralization IC80: > 30 µg/mL
[35]
  neutralization IC50: > 50 µg/mL
  neutralization IC80: > 50 µg/mL

Reference: patent US20230002480A1
